The test has as its target ectoLRP4-AP (alkaline phosphatase-conjugated ectodomain of mouse LRP4) (mouse) (UniProt Q8VI56). Briefly: ELISA; plate-binding assay, competition: 500 nM purified recombinant neural agrin added to 25 nM ectoLRP4-AP on ColQ-coated wells; agrin as the competitor that binds LRP4. (In general: In an ELISA, binding on a coated surface is turned into a signal by an enzyme label.)

ectoLRP4-AP (alkaline phosphatase-conjugated ectodomain of mouse LRP4) (mouse), sequence (Q8VI56 21-1725): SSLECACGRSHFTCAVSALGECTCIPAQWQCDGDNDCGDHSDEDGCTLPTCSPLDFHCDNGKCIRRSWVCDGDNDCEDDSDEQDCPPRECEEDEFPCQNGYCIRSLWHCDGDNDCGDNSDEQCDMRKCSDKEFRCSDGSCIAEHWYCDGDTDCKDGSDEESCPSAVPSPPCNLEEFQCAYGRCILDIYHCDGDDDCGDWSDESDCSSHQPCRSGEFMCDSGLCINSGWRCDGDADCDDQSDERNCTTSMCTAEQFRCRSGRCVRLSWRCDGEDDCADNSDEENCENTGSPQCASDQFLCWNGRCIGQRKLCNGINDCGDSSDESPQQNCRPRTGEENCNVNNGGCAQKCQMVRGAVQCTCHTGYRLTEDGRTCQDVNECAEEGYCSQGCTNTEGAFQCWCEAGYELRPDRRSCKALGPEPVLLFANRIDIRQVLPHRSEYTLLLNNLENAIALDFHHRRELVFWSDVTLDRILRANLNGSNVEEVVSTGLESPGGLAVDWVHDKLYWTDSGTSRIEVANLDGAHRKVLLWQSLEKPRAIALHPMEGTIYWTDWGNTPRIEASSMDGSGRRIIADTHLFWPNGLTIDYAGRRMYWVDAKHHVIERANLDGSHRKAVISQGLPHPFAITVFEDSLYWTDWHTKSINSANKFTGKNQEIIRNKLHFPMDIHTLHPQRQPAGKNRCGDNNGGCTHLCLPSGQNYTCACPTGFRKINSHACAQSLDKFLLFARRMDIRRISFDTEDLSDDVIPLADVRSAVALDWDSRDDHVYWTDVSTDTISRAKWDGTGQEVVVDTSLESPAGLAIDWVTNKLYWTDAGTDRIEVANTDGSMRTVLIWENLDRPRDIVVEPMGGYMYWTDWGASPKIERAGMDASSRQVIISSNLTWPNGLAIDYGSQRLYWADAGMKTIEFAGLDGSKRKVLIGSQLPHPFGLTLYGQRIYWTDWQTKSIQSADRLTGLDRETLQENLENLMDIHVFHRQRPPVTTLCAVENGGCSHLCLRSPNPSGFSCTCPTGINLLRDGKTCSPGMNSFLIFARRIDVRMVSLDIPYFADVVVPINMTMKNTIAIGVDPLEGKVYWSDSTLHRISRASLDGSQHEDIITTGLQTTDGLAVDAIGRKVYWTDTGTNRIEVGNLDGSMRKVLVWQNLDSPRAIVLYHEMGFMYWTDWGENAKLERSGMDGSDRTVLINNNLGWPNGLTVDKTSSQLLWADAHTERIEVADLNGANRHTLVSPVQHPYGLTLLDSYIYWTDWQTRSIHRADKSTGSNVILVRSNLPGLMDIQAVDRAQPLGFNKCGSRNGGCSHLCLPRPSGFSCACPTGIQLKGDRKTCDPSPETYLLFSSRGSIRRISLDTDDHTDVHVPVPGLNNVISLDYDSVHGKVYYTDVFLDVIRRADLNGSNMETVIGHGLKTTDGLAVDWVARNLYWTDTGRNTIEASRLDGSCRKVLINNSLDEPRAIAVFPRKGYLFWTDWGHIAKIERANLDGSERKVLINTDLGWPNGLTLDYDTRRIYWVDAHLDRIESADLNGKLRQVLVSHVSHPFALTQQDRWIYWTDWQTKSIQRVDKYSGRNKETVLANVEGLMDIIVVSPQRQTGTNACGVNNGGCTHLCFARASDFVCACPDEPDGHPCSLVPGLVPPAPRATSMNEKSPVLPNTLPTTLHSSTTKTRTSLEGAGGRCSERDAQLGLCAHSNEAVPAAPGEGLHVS

As to “recombinant rat neural agrin (Sf21-derived C-terminal agrin, His-tagged, R&D Systems) (from UniProt P25304 1-1959) (ligand)”, the percent reduction of ectoLRP4-AP (25 nM) binding to ColQ by 500 nM agrin is > 50%.

Source of the values: paper PMC10382678.
